Measurements reported in publication PMC4856986.
Positions count from the first letter of the chain named.

Key:
[1] = target: T1, ESRRB (DNA binding domain) (mouse, UniProt Q61539 100-186); experiment: EMSA and competition
T1 sequence: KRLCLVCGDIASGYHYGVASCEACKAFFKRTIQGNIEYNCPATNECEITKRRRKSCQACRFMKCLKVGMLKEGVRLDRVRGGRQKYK

OCT6-POU [2] = target: T2, OCT6-POU (mouse, UniProt P21952 245-396); experiment: EMSA competition
T2 sequence: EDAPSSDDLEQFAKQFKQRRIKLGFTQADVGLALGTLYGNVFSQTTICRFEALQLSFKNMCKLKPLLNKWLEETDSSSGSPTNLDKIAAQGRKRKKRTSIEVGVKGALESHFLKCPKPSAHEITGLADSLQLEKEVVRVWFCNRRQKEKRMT

SOX18-HMG (79 aa) [3] = target: T3, SOX18-HMG (79 aa) (Mus musculus, UniProt P43680 77-155); experiment: ITC
SOX18-HMG (79 aa) [4] = target: T3, SOX18-HMG (79 aa); experiment: X-ray crystal structure
BRN2-POU = target: T4, BRN2-POU (mouse, UniProt P31360 264-415); experiment: EMSA
T4 sequence: T2 sequence with A3T, S5T, T74A, N83S, L84I, G103S, H121Q, G125S

OCT6-POU [5] = target: T2, OCT6-POU; experiment: EMSA
PAX9 = PAX9 (mouse, UniProt P47242 4-130); experiment: EMSA and competition
Chain of PAX9 (P47242 4-130): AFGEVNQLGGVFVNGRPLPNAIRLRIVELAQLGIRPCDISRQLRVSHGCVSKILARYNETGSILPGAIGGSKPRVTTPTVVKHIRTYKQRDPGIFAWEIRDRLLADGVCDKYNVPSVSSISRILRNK

T3 sequence (P43680 77-155): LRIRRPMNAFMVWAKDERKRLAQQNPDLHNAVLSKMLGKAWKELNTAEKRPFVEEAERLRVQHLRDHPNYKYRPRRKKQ

B1: Esrrb element (Cy5/UL) (dsDNA)
DNA 1: TGGTGACCTTGGCT
DNA 2: AGCCAAGGTCACCA
B1: binds [1].

B2: UL-More (dsDNA)
DNA 1: TCCTCATGCATATGCATGAGGA
DNA 2: TCCTCATGCATATGCATGAGGA
B2: binds (OCT6-POU [2]).

B3: Prox1 15 bp (NAT decoy when unlabelled) (dsDNA)
DNA 1: CTAGCATTGTCTGGG
DNA 2: CCCAGACAATGCTAG
B3 showed a Ka (SOX18-HMG (79 aa) [3]) of 2.47e+06 M⁻¹.

B4: Prox1 crystal DNA, 16 bp with CG overhangs (dsDNA)
DNA 1: CACTAGCATTGTCTGGG
DNA 2: GCCCAGACAATGCTAGT
B4: binds (SOX18-HMG (79 aa) [4]).

B5: Cy5-Pore (dsDNA)
DNA 1: CACATTTGAAAGGCAAATGGAG
DNA 2: CTCCATTTGCCTTTCAAATGTG
B5: binds (BRN2-POU); binds (OCT6-POU [5]).

B6: Pax element (Cy5/UL) (dsDNA)
DNA 1: AAGCATTTTCACGCATGAGTGCACAG
DNA 2: CTGTGCACTCATGCGTGAAAATGCTT
B6: binds (PAX9).
